Measured values as given in patent US20150024402A1.

Columns and labels:
[1] = molecular target: Human Serum Albumin (HSA) (human) (UniProt P02768); test: LSPR absorbance shift of HSA-conjugated gold nanorods; carboxyl groups blocked with BSA at 200 ug/mL, 60 min incubation
[2] = molecular target: Human Serum Albumin (HSA) (human) (UniProt P02768); test: LSPR absorbance shift of HSA-conjugated gold nanorods; 600 ug/mL HSA (full coverage), BSA block, 60 min incubation; filing says the value deviates through ligand depletion
[3] = molecular target: Human Serum Albumin (HSA) (human) (UniProt P02768); test: LSPR absorbance shift of HSA-conjugated gold nanorods; 18.75 ug/mL HSA (partial coverage), BSA block, 60 min incubation
[4] = molecular target: Human Serum Albumin (HSA) (human) (UniProt P02768); test: LSPR absorbance shift of HSA-conjugated gold nanorods in suspension, dose response at equilibrium; 600 ug/mL HSA (full coverage), BSA block, 30 min incubation; filing says the value deviates through ligand depletion
[5] = molecular target: Human Serum Albumin (HSA) (human) (UniProt P02768); test: LSPR absorbance shift of HSA-conjugated gold nanorods; 37.5 ug/mL HSA (partial coverage), BSA block, 60 min incubation
[6] = molecular target: Human Serum Albumin (HSA) (human) (UniProt P02768); test: LSPR absorbance shift of HSA-conjugated gold nanorods in suspension, dose response at equilibrium; 18.75 ug/mL HSA (partial coverage), BSA block, 30 min incubation
[7] = molecular target: Human Serum Albumin (HSA) (human) (UniProt P02768); test: LSPR absorbance shift of HSA-conjugated gold nanorods; carboxyl groups blocked with mPEG-NH2 at 16700 ug/mL, 60 min incubation
[8] = molecular target: Human Serum Albumin (HSA) (human) (UniProt P02768); test: LSPR absorbance shift of HSA-conjugated gold nanorods; carboxyl groups blocked with ovalbumin at 200 ug/mL, 60 min incubation

Chain of UniProt P02768 (P02768 25-609 limits assumed): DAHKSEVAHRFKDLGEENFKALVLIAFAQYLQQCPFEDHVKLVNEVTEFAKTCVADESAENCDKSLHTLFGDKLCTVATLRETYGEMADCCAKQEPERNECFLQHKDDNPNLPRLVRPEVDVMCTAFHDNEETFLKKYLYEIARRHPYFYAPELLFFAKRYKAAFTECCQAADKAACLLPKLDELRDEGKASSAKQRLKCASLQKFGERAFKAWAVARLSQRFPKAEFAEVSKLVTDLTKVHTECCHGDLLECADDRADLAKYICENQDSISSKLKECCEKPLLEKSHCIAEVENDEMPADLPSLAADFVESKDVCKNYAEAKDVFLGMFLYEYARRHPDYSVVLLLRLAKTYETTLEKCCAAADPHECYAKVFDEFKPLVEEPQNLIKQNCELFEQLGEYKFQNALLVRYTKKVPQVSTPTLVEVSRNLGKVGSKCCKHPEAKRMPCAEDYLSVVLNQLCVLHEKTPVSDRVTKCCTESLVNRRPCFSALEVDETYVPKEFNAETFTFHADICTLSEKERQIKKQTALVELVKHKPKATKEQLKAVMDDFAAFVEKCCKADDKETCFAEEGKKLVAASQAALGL

Anti-Human Serum Albumin monoclonal antibody (ab18081, available from Abcam)
Kd [1]: 8.44 nM
Kd [2]: 252 nM
Kd [3]: 3.8 nM
Kd [4]: 99.4 nM
Kd [5]: 5.5 nM
Kd [6]: 6.41 nM
Kd [7]: 2.5 nM
Kd [8]: 5.22 nM
